Measurements from the supplement of paper PMC12042874.
± gives the uncertainty stated by the source.

Assay: amyloid nucleation score (Sup35N fusion, yeast selection) (log enrichment); library NNK3; higher = more nucleation; inactive = no reads after selection
Procedure, shortened: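 Random libraries were run with three technical output replicates. In each, psi-negative yeast expressing Sup35N fused to peptides of 20 random codons were induced 24 hours with 100 μM copper sulfate and grown 7 days at 30°C on medium lacking adenine and uracil, and input and output plasmid inserts were Illumina-sequenced. The nucleation score is the DiMSum log enrichment of output over input reads, centred on the mode score of non-aggregating sequences, and sequences under 100 input reads were excluded.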

| Substance | amyloid nucleation score |
| --- | --- |
| AHEQTQSDLPGVELPRWDR | inactive |
| IQAAEVWMTAPFGFDMEGGR | inactive |
| LTYAALYLNGKMNVENARVV | inactive |
| HSRVWGKYSGSLPGKM | inactive |
| YVRNQVNFSLAWLLITKLTK | 1.94 ± 0.085 |
| CESPLERSSAKYCRWGSCWG | inactive |
| NLEEHIRCFKGDRDPYLFF | inactive |
| DMATVIVSKLFTVVVWYLFW | inactive |
| FTFRLVKNTTLNGIYFCIKR | 0.787 ± 0.18 |
| WSLPSRLIRDVGSSWIYFCL | inactive |
| RFYDYYTLQVRYMTLHATNG | inactive |
| NCFEYLYPRVTDTELNRFFL | inactive |
| RTKFWMRRKRLLPSILYNEL | inactive |
| SGIAGECFAM | inactive |
| FRNNRRRAVMCSGFMFRFNF | inactive |
| TFPRERWDCPCKVIFRSVTP | inactive |
| SFRNKLELFQLVCMHNEPGC | inactive |
| LQSRF | inactive |
| KIICRAWYMSVGERRA | -0.449 ± 1.4 |
| IIYRKVVKRCAWITDKEIPG | inactive |
| FLVIPWDEEKCRLSDLFASN | inactive |
| EDAFWYYVEWPYKWLQGGHS | inactive |
| FSVYVAG | inactive |
| WVRSFMSLCFW | 0.974 ± 0.089 |
| DVLTVMSQLVVMKTL | inactive |
| SMSFTQFKGGGSIIITWCWP | inactive |

| Substance | amyloid nucleation score |
| --- | --- |
| SSCRTRC | -0.405 ± 0.76 |
| PRTQSYECVYGYSLKRNWLA | inactive |
| VCGNMVSLVVHPFLFSYVCD | inactive |
| IRFVLYISGILSCWFNRWNN | inactive |
| VFETEKLSHFKCEVLDCQ | inactive |
| AGIVRWVVFISSYWGPLLLL | inactive |
| SNAHMCVRRTAWKNI | inactive |
| SWRASVYFITWDW | inactive |
| VNRNVLTVSGCCLVYAPLC | 2.26 ± 0.06 |
| PCMNGVASFWNCGIKIFGSF | inactive |
| VHLSWFSIIVRVDEGDWARR | -0.839 ± 1.5 |
| CSGLSDLSVTLNCYVNCIFL | 2.48 ± 0.077 |
| IQISYNWW | 0.75 ± 0.3 |
| QYFHMTWSVIVYEIGVRPYI | -0.449 ± 0.8 |
| SVYCYEAS | inactive |
| PDSMNFTPDNHHVRNGYNNF | inactive |
| RYVQLCADYSHGF | inactive |
| SALGSSTSFYNGMRRPFRYH | inactive |
| GPSLVVNDLFGFCMVMYLND | inactive |
| SRFQWLWKMCSNDG | inactive |
| LGNGSLVIG | 0.033 ± 0.27 |
| FCEDSRMSYKFYVSCIFAHS | 0.636 ± 0.14 |
| DCDQVPI | inactive |
| YDSRWLDGSACKNKVQFGCQ | inactive |
| GGARMRFDQFMRHRATLASV | inactive |
| FAAARSYFKLFHIYCDDVTG | 1.96 ± 0.071 |

| Substance | amyloid nucleation score |
| --- | --- |
| DRVPSDTRCYKYGLLLLWYQ | inactive |
| DNLWRVRLRCKAFSLYVLNR | inactive |
| LHCFIMLIKCDRVMIVTVQG | inactive |
| ARTIELMECNISVNSIVWQG | 1.98 ± 0.089 |
| LTLCNPPTTRRTNATFLHCL | inactive |
| VSYWNEHHSEIVPLGCF | inactive |
| ILSFEVWFGLWSTCGLYPHK | inactive |
| SLCGLFRYAWYQFEFNDVRA | 0.977 ± 0.12 |
| GSPECPLVEV | inactive |
| PGFLGVPTACPLVSYDAVYP | inactive |
| LMRSREEGAPSDRRSQAYED | inactive |
| FSSYTWNPL | inactive |
| VTQMKNTLY | inactive |
| LSWTYGRMGLRRLGGTGCYG | inactive |
| CSAWGLRKF | 0.673 ± 0.2 |
| FSGATSFNQIYAVRTSCLFV | 1.01 ± 0.18 |
| HIWAHAFISLVLWLSPLSVS | inactive |
| PAMDII | inactive |
| RVMAMYIGV | inactive |
| ELLFIDGWKST | inactive |
| SIFPF | inactive |
| VTTSMCAIQD | inactive |
| RCLLYTAY | inactive |
| EEFSGNLCDFRLQPRSCCEN | inactive |
| YIRVVNAPVCTGNCLQDAYL | inactive |
| ESWKWYQYSVQWAWYEHPHS | inactive |
